Experimental findings from patent publication US20250223580 are described below.

Data set [1] has as its system HA-Csx30 S526A/Q428A/R530A/Q531A.
The subject of data set [2] is Csx30 from Desulfonema ishimotonii, full length.
For data set [3], the system named is N-terminal HA-tagged Csx30 alanine mutants of individual regions of the Csx29-Csx30 interface.
Data set [4] has as its system Csx30 fragment, residues 396-565.
The test system of data set [5] is TwinStrep-SUMO-Csx30 1-544 (C-terminal truncation of Csx30).
TwinStrep-SUMO-Csx30 1-544 (C-terminal truncation of Csx30), sequence (chain, as listed by the source): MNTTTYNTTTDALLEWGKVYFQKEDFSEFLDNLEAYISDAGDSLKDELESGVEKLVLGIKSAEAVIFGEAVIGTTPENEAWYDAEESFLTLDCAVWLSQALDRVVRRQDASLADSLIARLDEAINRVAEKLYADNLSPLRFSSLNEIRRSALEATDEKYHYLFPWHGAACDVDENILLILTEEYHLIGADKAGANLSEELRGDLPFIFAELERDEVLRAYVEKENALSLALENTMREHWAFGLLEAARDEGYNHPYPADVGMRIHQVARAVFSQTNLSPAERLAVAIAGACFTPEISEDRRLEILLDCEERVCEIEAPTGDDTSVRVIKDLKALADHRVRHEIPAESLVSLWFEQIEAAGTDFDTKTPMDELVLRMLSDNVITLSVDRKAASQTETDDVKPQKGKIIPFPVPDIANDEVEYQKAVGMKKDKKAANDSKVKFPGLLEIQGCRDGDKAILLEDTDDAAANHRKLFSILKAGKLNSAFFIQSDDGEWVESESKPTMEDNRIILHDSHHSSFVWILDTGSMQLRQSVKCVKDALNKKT

Csx30 from Desulfonema ishimotonii, full length, sequence (chain, as listed by the source): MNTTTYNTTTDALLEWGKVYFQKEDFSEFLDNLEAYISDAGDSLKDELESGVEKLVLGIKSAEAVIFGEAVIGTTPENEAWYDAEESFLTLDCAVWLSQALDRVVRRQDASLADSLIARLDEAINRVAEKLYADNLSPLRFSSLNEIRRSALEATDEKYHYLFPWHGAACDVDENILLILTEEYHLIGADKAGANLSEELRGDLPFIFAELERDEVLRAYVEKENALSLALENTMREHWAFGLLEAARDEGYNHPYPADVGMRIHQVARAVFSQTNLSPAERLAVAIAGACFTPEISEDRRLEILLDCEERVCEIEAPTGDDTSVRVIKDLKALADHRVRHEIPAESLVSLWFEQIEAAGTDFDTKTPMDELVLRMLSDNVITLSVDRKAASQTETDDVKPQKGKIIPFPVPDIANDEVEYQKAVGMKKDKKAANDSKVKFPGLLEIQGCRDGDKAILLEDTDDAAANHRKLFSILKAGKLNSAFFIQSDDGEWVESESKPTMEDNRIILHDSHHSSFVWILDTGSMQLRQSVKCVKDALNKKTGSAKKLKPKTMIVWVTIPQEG
Csx30 fragment, residues 396-565, sequence (chain, as listed by the source): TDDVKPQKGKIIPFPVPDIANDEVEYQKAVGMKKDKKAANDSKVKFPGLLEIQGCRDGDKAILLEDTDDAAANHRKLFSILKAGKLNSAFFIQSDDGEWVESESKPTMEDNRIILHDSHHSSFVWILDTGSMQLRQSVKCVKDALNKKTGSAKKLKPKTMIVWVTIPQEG

Turning to Cas7-11-Csx29-crRNA complex, the “stated: cleaved (target-RNA-dependent cleavage of HA-Csx30, anti-HA immunoblot)” value in data set [1] is “S526A/Q428A/R530A/Q531A: without target RNA only the upper full-length band; with target RNA the upper band is faint and a product band stands just above the 50 kDa mark”; in data set [2], “Wildtype: without target RNA only the upper full-length band; with target RNA the upper band is weak and a strong product band stands just above the 50 kDa mark”; in the data set with HA-Csx30 K551A/K553A, “K551A/K553A: without target RNA only the upper full-length band; with target RNA a product band just above the 50 kDa mark, and a weaker upper band remains”; in the data set with HA-Csx30 M527A, “M527A: without target RNA only the upper full-length band; with target RNA the upper band is faint and a product band stands just above the 50 kDa mark”. In data set [2], the “cleavage of Csx30 in in vitro reactions (immunoblot, SDS-PAGE)” value is reported as “Csx30, is specifically cleaved in response to a target RNA”. Moreover, in data set [2], the “cleavage of Up1 within the purified Up1-Up3 complex (SDS-PAGE, Coomassie)” value is “only in the lane with gRAMP-CHAT + and target RNA + do bands appear at about 50 kDa and just above 15 kDa, with a weaker Up1 band; the lanes without gRAMP-CHAT, or with gRAMP-CHAT and no target RNA, show only Up1 and Up3; the Up3 band is unchanged”. In addition, the “in vitro cleavage of Csx30 alanine mutants (immunoblot)” value in data set [3] was “mutating individual regions of the Csx29-Csx30 interface did not significantly affect Csx30 cleavage”.
Take “dCas7-11-Csx29-crRNA complex (Cas7-11 D429A/D654A)”: the “molar excess of Csx30 substrate cleaved in vitro” value in data set [2] was “cleaving 100-fold molar excess of Csx30 substrate in minutes”. Moreover, the “in vitro cleavage of truncated Csx30 (SDS-PAGE)” value is recorded as “Csx30 fragments containing residues 396-565 were efficiently cleaved in vitro” in data set [4] and “even a twenty amino acid truncation (Csx301-544) abolished cleavage activity” in data set [5].
